Reference: PMC5288196

Assays:
[1] = biological target: integrins on CHO and CHO-C2 cells (Chinese hamster (endogenous in CHO))
[2] = biological target: C2 isoform of CD46 on CHO-C2 cells (human)
[3] = biological target: C2 isoform of CD46 on CHO-C2 cells (human); remark: listed apart in the source
[4] = biological target: adenovirus serotype 35 vector virions (human adenovirus serotype 35)
[5] = biological target: adenovirus serotype 43 virions (human adenovirus serotype 43)

Sequence of recombinant soluble human CD46 protein comprising the extracellular component of the receptor (P15529 35-343): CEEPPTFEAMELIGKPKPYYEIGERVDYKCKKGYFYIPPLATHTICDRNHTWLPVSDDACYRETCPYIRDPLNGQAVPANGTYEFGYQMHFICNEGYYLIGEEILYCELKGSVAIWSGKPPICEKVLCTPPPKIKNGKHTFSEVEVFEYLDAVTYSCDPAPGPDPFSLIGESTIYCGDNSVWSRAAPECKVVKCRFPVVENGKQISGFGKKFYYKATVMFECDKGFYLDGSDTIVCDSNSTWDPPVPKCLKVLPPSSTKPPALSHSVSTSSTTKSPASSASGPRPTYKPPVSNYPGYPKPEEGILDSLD

## adenovirus serotype 43 virions (complex)
[1]
  inhibition of Ad43TL transduction of CHO and CHO-C2 cells pre-treated on ice with EDTA (10 mM), virus attached on ice: > 80%
  inhibition of Ad43TL transduction of CHO and CHO-C2 cells pre-treated on ice with the RGD-containing peptide GRGDSP (2 mg/ml), virus attached on ice: > 80%

## recombinant Ad35 fiber knob domain (domain or fragment)
[2]
  inhibition of Ad35TL transduction of CHO-C2 cells pre-incubated with the Ad35 knob (Fluc activity); the pair blocked is m4 with m6: 90%
  inhibition of Ad43TL transduction of CHO-C2 cells pre-incubated with the Ad35 knob (Fluc activity); the pair blocked is m3 with m6: 45%

## recombinant Ad43 fiber knob protein (domain or fragment)
[3]
  inhibition of Ad43TL infection of CHO-C2 cells pre-incubated with the Ad43 knob at 100 μg/ml (no inhibition; the text prints 100 mg/ml) and 1 mg/ml; the pair blocked is m3 with m6: 55%

## recombinant soluble human CD46 protein comprising the extracellular component of the receptor (from UniProt P15529 35-343) (domain or fragment)
[4]
  inhibition of CHO-C2 transduction by Ad35TL pre-incubated with sCD46 (Fluc activity); the pair blocked is m4 with m6: 92%
[5]
  inhibition of CHO-C2 transduction by Ad43TL pre-incubated with sCD46 (Fluc activity); the pair blocked is m3 with m6: 66%
